In article PMC7684278:

Experiments:
[1] = molecular target: Cas8c, large subunit of the Desulfovibrio vulgaris type I-C Cascade (Desulfovibrio vulgaris); assay: native MS; purified type I-C Cascade with its crRNA, about 6 uM, in 100 mM ammonium acetate; positive mode; in-source trapping at -120 and -300 V to release subunits and subcomplexes
[2] = molecular target: Cas7 of the Desulfovibrio vulgaris type I-C Cascade (Desulfovibrio vulgaris); assay: cryo-EM structure; purified type I-C Cascade with its crRNA, 0.3 mg/mL in 20 mM HEPES-NaOH pH 7.5, 100 mM KCl, 1 mM TCEP; graphene oxide grids; 3.1 A (3.13 A) reconstruction
[3] = molecular target: Cas7 of the Desulfovibrio vulgaris type I-C Cascade (Desulfovibrio vulgaris); assay: native MS; purified type I-C Cascade with its crRNA, about 6 uM, in 100 mM ammonium acetate; positive mode; in-source trapping at -120 and -300 V to release subunits and subcomplexes

## non-canonical small subunit (SSU) Cas11c of the Desulfovibrio vulgaris type I-C Cascade (domain or fragment)
[1]
  stoichiometry N: 2

## Cas7 of the Desulfovibrio vulgaris type I-C Cascade (natural protein)
[2]
  stoichiometry N: 7
[3]
  stoichiometry N: 7
